Measured values taken from patent US20250236850.

Assays:
[1] = target: T1, AN4702 protein of Aspergillus nidulans (uniprot entry Q5B428), native N-terminally histidine-methylated protein, Q5B428
T1 chain: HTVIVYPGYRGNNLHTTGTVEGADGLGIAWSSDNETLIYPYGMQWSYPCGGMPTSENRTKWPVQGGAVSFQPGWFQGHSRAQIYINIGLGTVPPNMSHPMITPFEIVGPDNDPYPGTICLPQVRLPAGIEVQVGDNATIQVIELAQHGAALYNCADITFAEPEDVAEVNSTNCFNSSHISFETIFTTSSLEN

[2] = target: T2, AA9A LPMO from Lentinus similis (LsAA9A), secreted by K. phaffii, His6-tagged
T2 chain: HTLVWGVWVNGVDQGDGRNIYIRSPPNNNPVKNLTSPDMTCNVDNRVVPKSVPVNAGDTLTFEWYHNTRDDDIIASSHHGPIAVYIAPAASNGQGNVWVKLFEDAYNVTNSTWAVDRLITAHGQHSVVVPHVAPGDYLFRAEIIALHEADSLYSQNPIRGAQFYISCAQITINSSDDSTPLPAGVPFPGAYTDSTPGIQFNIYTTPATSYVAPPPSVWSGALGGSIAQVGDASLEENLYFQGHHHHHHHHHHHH

B1: AN4663 N-terminal histidine methyltransferase (NHMT) from Aspergillus nidulans (protein)
chain: MAPFRSIYEKDATKKLVVGAALLVLAAFYSYVFLLTLAPVYGSTPSHIFHGYGVGIAGVAGWFSKDIVDRVSGRKAIYAIPVLAFFLPVVQYFVSQQSSALGNPAGPIFTEVLALYPLVLLSVACAGKLVQAGLNLQRHGDLVAEHIPLLGSYVIYSAGEHLIKAFLSRFIGSTVLLSRAGLQILIAIFYAAAVPSKALLLAIPAFLFSVTSNTHLPLGHTTTALNNIIADDGFALVARQDSTTGYISVLDNLEDGFRVMRCDHSLLGGQWIKKRPNYTPPAVKDPIYAVFTMLEAVRLVETAHGIPRADAGSNALVIGLGIGTTPGALISHGIDTTIVEIDPVVHKYALQYFDLPENHTPIIEDARAFVQRSRNAPQPKQYDYIVHDVFTGGAEPVELFTYEFISGLHALLKDDGVIAINYAGDISLYSTALSIRTIKSIFPTCRLFREAAAPEIGPDFTNMVIFCTKSRGAPITFRDPVPEDFLGSRFRSRYLVPKHEVDAAQFDNVGLEDGPQGHGRRVLVDKEVGRLHKYQDRSALEHWGIMRTVLPDRVWEGW
PRM assay of N-terminal histidine methylation of the AN4702 peptide in A. nidulans knockout strains [1]: the knockout of the gene [SEQ ID NO.: 1] encoding AN4663 (uniprot entry Q5B467) [SEQ ID NO.: 2] abolished the N-terminal histidine methylation on the monitored peptides and conversely, the unmethylated form was observed | methylation stoichiometry of the N-terminal peptide of secreted LsAA9A (targeted MS), Amy signal peptide construct, co-expression in K. phaffii [2]: a methylation stoichiometry on average of 65% of the peptides for the Amy signal peptide | methylation stoichiometry of the N-terminal peptide of secreted LsAA9A (targeted MS), native signal peptide construct, co-expression in K. phaffii [2]: 29% for the native signal peptide

B2: AN4663 with E340A substitution (strain NID2787) (protein)
chain: MAPFRSIYEKDATKKLVVGAALLVLAAFYSYVFLLTLAPVYGSTPSHIFHGYGVGIAGVAGWFSKDIVDRVSGRKAIYAIPVLAFFLPVVQYFVSQQSSALGNPAGPIFTEVLALYPLVLLSVACAGKLVQAGLNLQRHGDLVAEHIPLLGSYVIYSAGEHLIKAFLSRFIGSTVLLSRAGLQILIAIFYAAAVPSKALLLAIPAFLFSVTSNTHLPLGHTTTALNNIIADDGFALVARQDSTTGYISVLDNLEDGFRVMRCDHSLLGGQWIKKRPNYTPPAVKDPIYAVFTMLEAVRLVETAHGIPRADAGSNALVIGLGIGTTPGALISHGIDTTIVAIDPVVHKYALQYFDLPENHTPIIEDARAFVQRSRNAPQPKQYDYIVHDVFTGGAEPVELFTYEFISGLHALLKDDGVIAINYAGDISLYSTALSIRTIKSIFPTCRLFREAAAPEIGPDFTNMVIFCTKSRGAPITFRDPVPEDFLGSRFRSRYLVPKHEVDAAQFDNVGLEDGPQGHGRRVLVDKEVGRLHKYQDRSALEHWGIMRTVLPDRVWEGW
PRM assay of N-terminal histidine methylation in A. nidulans (strain NID2787) [1]: Site-directed mutagenesis of this glutamate to an alanine (E340A) lead to a loss of N-terminal histidine methylation generating a similar methylation phenotype to a complete knockout of AN4663

B3: C-terminally mRFP-tagged AN4663 (strain NID2794) (protein)
chain: MAPFRSIYEKDATKKLVVGAALLVLAAFYSYVFLLTLAPVYGSTPSHIFHGYGVGIAGVAGWFSKDIVDRVSGRKAIYAIPVLAFFLPVVQYFVSQQSSALGNPAGPIFTEVLALYPLVLLSVACAGKLVQAGLNLQRHGDLVAEHIPLLGSYVIYSAGEHLIKAFLSRFIGSTVLLSRAGLQILIAIFYAAAVPSKALLLAIPAFLFSVTSNTHLPLGHTTTALNNIIADDGFALVARQDSTTGYISVLDNLEDGFRVMRCDHSLLGGQWIKKRPNYTPPAVKDPIYAVFTMLEAVRLVETAHGIPRADAGSNALVIGLGIGTTPGALISHGIDTTIVEIDPVVHKYALQYFDLPENHTPIIEDARAFVQRSRNAPQPKQYDYIVHDVFTGGAEPVELFTYEFISGLHALLKDDGVIAINYAGDISLYSTALSIRTIKSIFPTCRLFREAAAPEIGPDFTNMVIFCTKSRGAPITFRDPVPEDFLGSRFRSRYLVPKHEVDAAQFDNVGLEDGPQGHGRRVLVDKEVGRLHKYQDRSALEHWGIMRTVLPDRVWEGW
PRM assay of N-terminal histidine methylation in A. nidulans (strain NID2794) [1]: the C-terminal mRFP tagged version was unable to methylate the LPMOs

B4: N-terminally mRFP-tagged AN4663 (strain NID2789) (protein)
chain: MAPFRSIYEKDATKKLVVGAALLVLAAFYSYVFLLTLAPVYGSTPSHIFHGYGVGIAGVAGWFSKDIVDRVSGRKAIYAIPVLAFFLPVVQYFVSQQSSALGNPAGPIFTEVLALYPLVLLSVACAGKLVQAGLNLQRHGDLVAEHIPLLGSYVIYSAGEHLIKAFLSRFIGSTVLLSRAGLQILIAIFYAAAVPSKALLLAIPAFLFSVTSNTHLPLGHTTTALNNIIADDGFALVARQDSTTGYISVLDNLEDGFRVMRCDHSLLGGQWIKKRPNYTPPAVKDPIYAVFTMLEAVRLVETAHGIPRADAGSNALVIGLGIGTTPGALISHGIDTTIVEIDPVVHKYALQYFDLPENHTPIIEDARAFVQRSRNAPQPKQYDYIVHDVFTGGAEPVELFTYEFISGLHALLKDDGVIAINYAGDISLYSTALSIRTIKSIFPTCRLFREAAAPEIGPDFTNMVIFCTKSRGAPITFRDPVPEDFLGSRFRSRYLVPKHEVDAAQFDNVGLEDGPQGHGRRVLVDKEVGRLHKYQDRSALEHWGIMRTVLPDRVWEGW
PRM assay of N-terminal histidine methylation in A. nidulans (strain NID2789) [1]: methylation of LPMOs was stoichiometric for the N-terminally tagged version

B5: Truncated variant of AN4663 lacking the transmembrane region (positions 1-224) (protein)
chain: LNNIIADDGFALVARQDSTTGYISVLDNLEDGFRVMRCDHSLLGGQWIKKRPNYTPPAVKDPIYAVFTMLEAVRLVETAHGIPRADAGSNALVIGLGIGTTPGALISHGIDTTIVEIDPVVHKYALQYFDLPENHTPIIEDARAFVQRSRNAPQPKQYDYIVHDVFTGGAEPVELFTYEFISGLHALLKDDGVIAINYAGDISLYSTALSIRTIKSIFPTCRLFREAAAPEIGPDFTNMVIFCTKSRGAPITFRDPVPEDFLGSRFRSRYLVPKHEVDAAQFDNVGLEDGPQGHGRRVLVDKEVGRLHKYQDRSALEHWGIMRTVLPDRVWEGW
PRM quantification of methylated and unmethylated N-terminal peptide after truncation of AN4663 [1]: the expression of this variant abolished the N-terminal histidine methylation capacity of the enzyme
